Results published in patent US20050032689A1, “Methods for treatment or diagnosis of disease or disorders associated with an APB domain” (New York University, priority 1994, published 2005).
“Also recorded” adds a separate entry of the source.

Key:
[1] = test system: HER2/neu (HER1/2 chimera); assay: Binding of GST-Shc fusion proteins to HER1/2 chimera from NIH 3T3 lysates, anti-phosphotyrosine blot; details: EGF-stimulated NIH 3T3 lysates
Experimental: (§1) FIGS. 4A, 4B, 4C and 4D. Binding of Shc fragments to growth factor receptors. A, schematic diagram illustrating the Shc fragments used in binding studies. Full length murine p52^shc is indicated in (i) while (ii)-(vi) were generated as GST fusion proteins for use in receptor binding studies. B, association of various GST fusion proteins with activated EGF receptor (EGFR). Binding was performed as in FIG. 2A with the exception that all lysates were stimulated with EGF. All studies used 3 μg of fusion proteins except for the Shc SH2 where 10 μg was used. Immunoblotting was performed with anti-phosphotyrosine. C, binding of Shc fusion proteins to NIH 3T3 cells expressing a HER1/2 chimera. This chimera consists of the EGF receptor extracellular binding domain and the intracellular region of HER2/neu. After stimulation of these cells with EGF (200 ng/ml) lysates were prepared and binding as well as blotting studies were performed as in B using anti-phosphotyrosine antibody. D, binding of Shc 1-209 to TrkA. Beads containing 10 μg of GST fusion proteins Shc 1-209, phospholipase C-γ (PLC-γ) SH2 (contains both N and C SH2 domains), or GST alone were added to lysates from 2×10^7 PC12 cells stimulated with 50 ng/ml nerve growth factor (lanes 1, 2, and 4). The binding of the same amount of lysate to 2 μg of anti-TrkA antibody is shown as a positive control and to indicate the position of TrkA on the blot (lane 3). Otherwise, the binding and blotting were performed as in B using anti-phosphotyrosine antibody. […] Protein concentration was determined by SDS-PAGE (polyacrylamide gel electrophoresis) using bovine serum albumin as a standard. […]

[2] = target: T1, TrkA (Rattus norvegicus, UniProt P35739); assay: Binding of GST fusion proteins to TrkA from nerve growth factor stimulated PC12 cell lysates; details: 10 μg GST fusion protein, PC12 lysates stimulated with nerve growth factor
T1 construct: lysates from 2×10^7 PC12 cells stimulated with 50 ng/ml nerve growth factor; endogenous in cells; host or cells: PC12
Experimental: as §1, with “4).” for “4). The binding of the same amount of lysate to 2 μg of anti-TrkA antibody is shown as a positive control and to indicate the position of TrkA on the blot (lane 3). Otherwise, the binding and blotting were performed as in B using anti-phosphotyrosine antibody.”

T1 sequence (P35739 33-799): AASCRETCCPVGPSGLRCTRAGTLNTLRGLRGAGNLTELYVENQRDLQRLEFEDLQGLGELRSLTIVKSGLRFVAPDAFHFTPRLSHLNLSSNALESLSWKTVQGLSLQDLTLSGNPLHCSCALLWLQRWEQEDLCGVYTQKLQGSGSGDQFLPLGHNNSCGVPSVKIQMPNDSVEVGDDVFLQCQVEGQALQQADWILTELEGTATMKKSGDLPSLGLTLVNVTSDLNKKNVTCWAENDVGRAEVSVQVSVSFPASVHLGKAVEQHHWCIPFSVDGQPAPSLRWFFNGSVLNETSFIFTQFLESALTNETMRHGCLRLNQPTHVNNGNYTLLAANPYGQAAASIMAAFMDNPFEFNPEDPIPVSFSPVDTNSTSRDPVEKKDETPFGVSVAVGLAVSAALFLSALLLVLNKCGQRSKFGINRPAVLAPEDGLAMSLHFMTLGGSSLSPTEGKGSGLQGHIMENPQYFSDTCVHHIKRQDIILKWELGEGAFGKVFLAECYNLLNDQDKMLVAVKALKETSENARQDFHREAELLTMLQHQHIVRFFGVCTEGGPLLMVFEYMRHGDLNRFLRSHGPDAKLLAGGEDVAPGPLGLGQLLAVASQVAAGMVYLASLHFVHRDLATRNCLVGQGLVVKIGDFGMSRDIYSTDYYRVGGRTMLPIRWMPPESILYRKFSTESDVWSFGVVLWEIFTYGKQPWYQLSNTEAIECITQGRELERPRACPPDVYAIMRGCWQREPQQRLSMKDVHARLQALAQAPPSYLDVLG

binding to HER2/neu [1]: bound to HER2/neu
B1: Shc 1-209: Shc amino terminus, first 209 amino acids of murine p52Shc, generated as a GST fusion protein (protein, UniProt P98083 1-209, looked up, fragment)
chain: MDLLPPKPKYNPLRNESLSSLEEGASGSTPPEELPSPSASSLGPILPPLPGDDSPTTLCSFFPRMSNLKLANPAGGRLGPKGEPGKAAEDGEGSAGAALRDSGLLPLLQDMNKLSGGGGRRTRVEGGQLGGEEWTRHGSFVNKPTRGWLHPNDKVMGPGVSYLVRYMGCVEVLQSMRALDFNTRTQVTREAISLVCEAVPGAKGATRRR
modifications: GST fusion
notes: Shc amino terminus, first 209 amino acids of murine p52Shc, generated as a GST fusion protein
binding to TrkA [2]: bound to HER2/neu and TrkA; also recorded: bind in a similar fashion to that seen with the SH2 domain of phospholipase C-λ
